Results: US7399847 (GENERAL HOSPITAL, dated 2008)
Residue numbers refer to the chain shown, from its start.

T1: PSGL-1 deletion mutant lacking the amino terminal 100 residues (apical domain) (UniProt Q14242 118-412)
T1 construct: range 118-end (end not numbered), on cells; Cotransfected with FTVII; also called Xba1 (label inferred from the order of the endpoints)
T1 sequence: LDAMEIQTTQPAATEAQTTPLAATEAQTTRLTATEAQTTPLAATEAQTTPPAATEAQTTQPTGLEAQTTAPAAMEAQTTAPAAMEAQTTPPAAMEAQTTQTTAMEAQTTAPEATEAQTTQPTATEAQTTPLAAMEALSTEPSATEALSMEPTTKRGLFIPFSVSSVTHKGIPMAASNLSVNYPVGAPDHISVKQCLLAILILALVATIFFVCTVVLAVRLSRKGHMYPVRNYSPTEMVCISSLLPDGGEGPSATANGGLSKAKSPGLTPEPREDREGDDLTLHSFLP

T2: PSGL-1 amino-terminal deletion beginning at precursor A98 (UniProt Q14242 98-412)
T2 construct: range 98-end (end not numbered), on cells; also called further deletion of PSGL
T2 sequence: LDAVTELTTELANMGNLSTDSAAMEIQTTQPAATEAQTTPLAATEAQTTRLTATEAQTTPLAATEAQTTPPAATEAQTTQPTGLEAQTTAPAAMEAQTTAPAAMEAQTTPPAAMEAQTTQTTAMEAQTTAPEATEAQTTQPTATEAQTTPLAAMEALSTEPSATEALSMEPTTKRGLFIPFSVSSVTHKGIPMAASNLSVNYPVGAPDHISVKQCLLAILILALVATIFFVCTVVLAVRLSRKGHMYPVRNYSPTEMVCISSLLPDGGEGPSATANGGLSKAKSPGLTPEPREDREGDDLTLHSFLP

T3: PSGL-1 residues 38-57 with tyrosines converted to phenylalanine, on the truncated PSGL-1 lacking the apical … (UniProt Q14242 118-412)
T3 construct: domain: truncated PSGL-1 lacking the apical domain, on cells
T3 sequence: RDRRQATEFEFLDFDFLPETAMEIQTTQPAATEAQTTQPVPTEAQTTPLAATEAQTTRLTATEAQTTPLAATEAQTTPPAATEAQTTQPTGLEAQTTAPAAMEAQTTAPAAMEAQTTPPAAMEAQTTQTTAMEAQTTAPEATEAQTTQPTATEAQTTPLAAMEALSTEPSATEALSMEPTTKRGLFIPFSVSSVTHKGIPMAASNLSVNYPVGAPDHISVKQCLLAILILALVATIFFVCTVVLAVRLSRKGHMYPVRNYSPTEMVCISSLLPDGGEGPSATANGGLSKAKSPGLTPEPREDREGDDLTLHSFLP

T4: PSGL-1 amino-terminal deletion beginning at precursor E58 (UniProt Q14242 58-412)
T4 construct: range 58-end (end not numbered), on cells; also called removal of the first 40 amino acids of the N-terminus
T4 sequence: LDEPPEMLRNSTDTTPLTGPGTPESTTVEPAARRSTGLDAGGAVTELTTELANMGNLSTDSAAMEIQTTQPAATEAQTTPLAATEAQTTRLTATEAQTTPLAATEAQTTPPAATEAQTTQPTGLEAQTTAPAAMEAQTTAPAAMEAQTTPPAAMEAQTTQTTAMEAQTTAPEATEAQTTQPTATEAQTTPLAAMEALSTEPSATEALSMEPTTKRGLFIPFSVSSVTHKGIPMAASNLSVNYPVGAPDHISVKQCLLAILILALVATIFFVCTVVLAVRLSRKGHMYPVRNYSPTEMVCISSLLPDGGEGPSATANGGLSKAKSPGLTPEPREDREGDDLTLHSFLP

T5: PSGL-1 amino-terminal deletion beginning at precursor P78 (UniProt Q14242 78-412)
T5 construct: range 78-end (end not numbered), on cells; also called further deletion of PSGL
T5 sequence: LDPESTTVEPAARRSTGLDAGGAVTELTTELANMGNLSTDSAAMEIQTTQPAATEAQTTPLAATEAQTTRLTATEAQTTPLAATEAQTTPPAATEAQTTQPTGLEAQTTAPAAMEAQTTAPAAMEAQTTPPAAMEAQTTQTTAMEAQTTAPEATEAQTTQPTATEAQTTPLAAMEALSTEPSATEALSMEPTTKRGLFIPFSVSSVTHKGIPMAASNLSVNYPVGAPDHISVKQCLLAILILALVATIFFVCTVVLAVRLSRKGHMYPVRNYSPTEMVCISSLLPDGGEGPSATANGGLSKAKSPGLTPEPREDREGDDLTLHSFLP

T6: PSGL-1 amino-terminal deletion beginning at precursor R38 (UniProt Q14242 38-412)
T6 construct: range 38-end (end not numbered), on cells; also called removal of the first 20 amino acids of the N-terminus of the mature PSGL-1
T6 sequence: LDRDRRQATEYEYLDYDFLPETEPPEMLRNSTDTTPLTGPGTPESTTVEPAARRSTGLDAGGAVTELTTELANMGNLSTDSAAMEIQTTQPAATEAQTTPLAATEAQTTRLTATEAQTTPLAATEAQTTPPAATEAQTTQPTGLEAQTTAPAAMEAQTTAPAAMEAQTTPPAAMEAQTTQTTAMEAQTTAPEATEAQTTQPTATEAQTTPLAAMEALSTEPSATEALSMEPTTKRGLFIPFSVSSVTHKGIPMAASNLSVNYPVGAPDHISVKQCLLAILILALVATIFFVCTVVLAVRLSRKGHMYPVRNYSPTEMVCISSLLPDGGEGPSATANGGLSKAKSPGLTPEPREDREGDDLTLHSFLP

B1: PSGL-1 residues 38-57 (wildtype) appended to the CD43 mucin core (ligand, not shown: small tags and cut ends)
chain: RDRRQATEYEYLDYDFLPETITTNSPETSSRTSGAPVTTAASSLETSRGTSGPPLTMATVSLETSKGTSGPPVTMATDSLETSTGTTGPPVTMTTGSLEPSSGASGPQVSS
modifications: as the filing concludes: sulfated tyrosines at 46, 48 and 51; sLe^x on threonines 44 and 57
notes: Cotransfected with FTVII
B2: PSGL-1 residues 38-57 with threonines converted to alanines, on the CD43 repeat elements and transmembrane domain (ligand, not shown: small tags and cut ends)
chain: B1 chain with T7A, T20A
B3: PSGL-1 residues 38-57 with tyrosines converted to phenylalanine, on the CD43 repeat elements and transmembrane domain (ligand, not shown: small tags and cut ends)
chain: B1 chain with Y9F, Y11F, Y14F
B4: PSGL-1-NH2/CD43 rep. (ligand, not shown: small tags and cut ends)
chain: LQLWDTWADEAEKALGPLLARDRRQATEYEYLDYDFLPETEPPEMLRNSTDTTPLTGPGTPESTTVEPAARRSTGLDAGGAVTELTTELANMGNLSTDSAEFITTNSPETSSRTSGAPVTTAASSLETSRGTSGPPLTMATVSLETSKGTSGPPVTMATDSLETSTGTTGPPVTMTTGSLEPSSGASGPQVSS
notes: range mature amino terminus-117; Cotransfected with FTVIIh; also called PSGL-1-NH2/CD43 repeats; PSGL-1 apical domain on the CD43 repeat region
B5: Factor VIII-CD43 synthetic P-selectin ligand (designed binder)
chain: TGDYYEDSYEDISITTNSPETSSRTSGAPVTTAASSLETSRGTSGPPLTMATVSLETSKGTSGPPVTMATDSLETSTGTTGPPVTMTTGSLEPSSGASGPQVSS
modifications: tyrosine sulfation site of Factor VIII; sLe^x (FTVIIh cotransfected)
notes: also called CD43-F8; not shown: flu hemagglutinin oligopeptide tag
B6: P-selectin:immunoglobulin fusion protein (Fc fusion, UniProt P16109 42-321, looked up)
chain: WTYHYSTKAYSWNISRKYCQNRYTDLVAIQNKNEIDYLNKVLPYYSSYYWIGIRKNNKTWTWVGTKKALTNEAENWADNEPNNKRNNEDCVEIYIKSPSAPGKWNDEHCLKKKHALCYTASCQDMSCSKQGECLETIGNYTCSCYPGFYGPECEYVRECGELELPQHVLMNCSHPLGNFSFNSQCSFHCTDGYQVNGPSKLECLASGIWTNKPPQCLAAQCPPLKIPERGNMTCLHSAKAFQHQSSCSFSCEEGFALVGPEVVQCTASGVWTAPAPVCKA
notes: domain: lectin, EGF-related, and first two short consensus repeat related domains; Made in COS cells; captured from supernatant on wells coated with goat anti-human IgG Fc; also called soluble P-selectin; P-selectin Ig chimera; not shown: hinge, CH2, and CH3 domains of human IgG1

What was measured:
[1] = biological target: B6; test: adhesion of 51Cr-labelled transfected COS cells to immobilized P-selectin:Ig
[2] = biological target: B6; test: static binding assay, transfected COS cells (with FTVIIh) on plastic coated with P-selectin Ig
[3] = biological target: T1, PSGL-1 deletion mutant lacking the …; test: adhesion of 51Cr-labelled transfected COS cells to immobilized P-selectin:Ig
[4] = biological target: T2, PSGL-1 amino-terminal deletion …; test: as above
[5] = biological target: T3, PSGL-1 residues 38-57 with tyrosines …; test: as above
[6] = biological target: T4, PSGL-1 amino-terminal deletion …; test: as above
[7] = biological target: T5, PSGL-1 amino-terminal deletion …; test: as above
[8] = biological target: T6, PSGL-1 amino-terminal deletion …; test: as above

Does B1 bind [1]?
Result: binds

Does B2 bind [1]?
Result: binds

Does B3 bind [1]?
Result: no binding

Does B4 bind [1]?
Result: binds

Does B5 bind [2]?
Result: binds

Does B6 bind [3]?
Result: no binding

Does B6 bind [4]?
Result: no binding

Does B6 bind [5]?
Result: no binding

Does B6 bind [6]?
Result: no binding

Does B6 bind [7]?
Result: no binding

Does B6 bind [8]?
Result: binds
